Measured values taken from patent publication US20220356259A1 (SHIHUDA PHARMACEUTICAL GROUP JILIN, published 2022).

T1: fusion protein in which the extracellular domain of human GITR is fused with the domain of mouse IgG1-Fc (human)
T1 construct: The GITR part is said to start at residue 1 of Q9Y5U5, so the entry may hold a signal peptide; Made in HEK293 cells, Protein A purified; also called hGITR-muFc; human GITR protein
T1 chain: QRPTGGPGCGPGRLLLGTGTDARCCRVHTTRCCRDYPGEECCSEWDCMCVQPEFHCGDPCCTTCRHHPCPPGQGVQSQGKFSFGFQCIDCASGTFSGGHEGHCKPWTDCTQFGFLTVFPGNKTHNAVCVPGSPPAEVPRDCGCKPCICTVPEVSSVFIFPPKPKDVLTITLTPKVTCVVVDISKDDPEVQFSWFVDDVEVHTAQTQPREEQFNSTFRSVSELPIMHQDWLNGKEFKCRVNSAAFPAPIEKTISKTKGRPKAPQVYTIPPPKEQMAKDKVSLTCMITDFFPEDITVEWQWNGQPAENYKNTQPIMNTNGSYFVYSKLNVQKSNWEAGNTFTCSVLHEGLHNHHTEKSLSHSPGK


How the values were obtained:
[1] = target: T1, fusion protein in which the …; assay: BLI (Octet K2), antibody on AHC biosensor, hGITR-muFc in solution from 100 nM
Method: Using the BLI method, the above 9 isolated antigen-binding proteins of the present application and C3E2 were immobilized on the AHC biosensor at a concentration of 10 µg/ml. At the same time, the hGITR-muFc prepared in Example 1 was diluted 2-fold from 100 nM in 5 gradients. The reaction plate was placed on Octet K2 instrument, meanwhile the program was set as Baseline 60 s, Association 20 s, Disscociation 300 s, Baseline 2 30 s, Loading 40 s, custom 5 s. At the end of the program, curve fitting and parameter conversion were conducted.

[2] = target: T1, fusion protein in which the …; assay: ELISA, hGITR-muFc coated at 5 ug/ml, anti-human IgG-HRP (FIG. 5)
Method: (§1) An ELISA plate was coated with 5 μg/ml of hGITR-muFc at 100 μl/well, and incubated overnight at 4° C. The plate was washed with 10 mM of PBS/Tween (0.05%) at pH 7.4 for 3 times, blocked with PBS containing 3% BSA and incubated at 37° C. for 2 h; then washed for 3 times, added with the above 9 isolated antigen-binding proteins of the present application in 3-fold dilutions starting from 10 μg/ml, incubated at 37° C. for 2 h, washed for 3 times, added with anti-human IgG-HRP enzyme-labeled secondary antibody, incubated at 37° C. for 1 h, cleaned, then developed with TMB substrate, and subjected to spectrophotometric analysis at OD450 nm. The results are shown in FIG. 5 and FIG. 6, in which the EC₅₀ values of various proteins in FIG. 5 and FIG. 6 are shown in Table 3 and Table 4, respectively. It can be seen from FIG. 5 and FIG. 6 as well as Table 3 and Table 4 that, the humanized antibodies (i.e., the isolated antigen-binding proteins of the present application 3E2 1-2, 3E2 1-3, 3E2 1-4, 3E2 2-2, 3E2 2-3, 3E2 2-4, 3E2 3-2, 3E2 3-3 and 3E2 3-4) have a binding affinity to the antigen that is equivalent to that of the parent antibody (i.e., the isolated antigen-binding protein C3E2 of the present application).

[3] = target: T1, fusion protein in which the …; assay: ELISA, hGITR-muFc coated at 5 ug/ml, anti-human IgG-HRP (FIG. 6)
Method: as §1

Binder | Kd [1] [pM] | koff [1] [s⁻¹] | kon [1] [M⁻¹ s⁻¹] | EC50 [2] [ng/mL] | EC50 [3] [ng/mL]
isolated antigen-binding protein C3E2 (antibody, human IgG1, kappa, V domains shown, made in HEK293 cells; also called parent antibody; chimeric antibody) VH: QVQLQESGPGILQPSQTLSLTCSFSGFSLSTFGMGVGWIRQPSGKGLEWLVLILWNDIKYYNPALKSLLTVSKDTSNNQVFLKIASVDTADTATYYCARVDGYYGYFDVWGTGTTVTVSS VL: DIVMTQSPLSLPVSLGDQASISCRSSQTIVHSNGNTYLEWYLQKPGQSPKLLIYKVSNRFSGVPDRFSGSGSGTDFTLKISRVEAEDLGVYYCFQGSHVPWTFGGGTKLEIKR | 6.01 | 1.83e-05 | 3.05e+06 | 6.21 | 6.72
isolated antigen-binding protein 3E2 2-3 (antibody, human IgG1, kappa, also called VHV2/VLV3) heavy: not shown light: DIVMTQSPLSLPVTLGQPASISCRSSQTIVHSNGNTYLEWYLQKPGQSPKLLIYKVSNRFSGVPDRFSGSGSGTDFTLKISRVEAEDVGVYYCFQGSHVPWTFGGGTKLEIKRTVAAPSVFIFPPSDEQLKSGTASVVCLLNNFYPREAKVQWKVDNALQSGNSQESVTEQDSKDSTYSLSSTLTLSKADYEKHKVYACEVTHQGLSSPVTKSFNRGEC | < 1 | < 1e-07 | 2.46e+06 | – | 4.71
isolated antigen-binding protein 3E2 2-2 (antibody, human IgG1, kappa, also called VHV2/VLV2) heavy: not shown light: DIVMTQSPLSLPVTLGQPASISCRSSQTIVHSNGNTYLEWYLQRPGQSPKLLIYKVSNRFSGVPDRFSGSGSGTDFTLKISRVEAEDVGVYYCFQGSHVPWTFGGGTKVEIKRTVAAPSVFIFPPSDEQLKSGTASVVCLLNNFYPREAKVQWKVDNALQSGNSQESVTEQDSKDSTYSLSSTLTLSKADYEKHKVYACEVTHQGLSSPVTKSFNRGEC | 12.5 | 3.01e-05 | 2.4e+06 | 5.64 | –
isolated antigen-binding protein 3E2 2-4 (antibody, human IgG1, kappa, also called VHV2/VLV4) heavy: not shown light: DIVMTQSPLSLPVTLGDQASISCRSSQTIVHSNGNTYLEWYLQKPGQSPKLLIYKVSNRFSGVPDRFSGSGSGTDFTLKISRVEAEDVGVYYCFQGSHVPWTFGGGTKLEIKRTVAAPSVFIFPPSDEQLKSGTASVVCLLNNFYPREAKVQWKVDNALQSGNSQESVTEQDSKDSTYSLSSTLTLSKADYEKHKVYACEVTHQGLSSPVTKSFNRGEC | < 1 | < 1e-07 | 2.41e+06 | – | 4.8
isolated antigen-binding protein 3E2 1-4 (antibody, human IgG1, kappa, also called VHV1/VLV4) heavy: not shown light: DIVMTQSPLSLPVTLGDQASISCRSSQTIVHSNGNTYLEWYLQKPGQSPKLLIYKVSNRFSGVPDRFSGSGSGTDFTLKISRVEAEDVGVYYCFQGSHVPWTFGGGTKLEIKRTVAAPSVFIFPPSDEQLKSGTASVVCLLNNFYPREAKVQWKVDNALQSGNSQESVTEQDSKDSTYSLSSTLTLSKADYEKHKVYACEVTHQGLSSPVTKSFNRGEC | < 1 | < 1e-07 | 2.55e+06 | 4.52 | –
isolated antigen-binding protein 3E2 3-3 (antibody, human IgG1, kappa, also called VHV3/VLV3) heavy: not shown light: DIVMTQSPLSLPVTLGQPASISCRSSQTIVHSNGNTYLEWYLQKPGQSPKLLIYKVSNRFSGVPDRFSGSGSGTDFTLKISRVEAEDVGVYYCFQGSHVPWTFGGGTKLEIKRTVAAPSVFIFPPSDEQLKSGTASVVCLLNNFYPREAKVQWKVDNALQSGNSQESVTEQDSKDSTYSLSSTLTLSKADYEKHKVYACEVTHQGLSSPVTKSFNRGEC | < 1 | < 1e-07 | 2.49e+06 | – | 6.04
isolated antigen-binding protein 3E2 3-2 (antibody, human IgG1, kappa, also called VHV3/VLV2) heavy: not shown light: DIVMTQSPLSLPVTLGQPASISCRSSQTIVHSNGNTYLEWYLQRPGQSPKLLIYKVSNRFSGVPDRFSGSGSGTDFTLKISRVEAEDVGVYYCFQGSHVPWTFGGGTKVEIKRTVAAPSVFIFPPSDEQLKSGTASVVCLLNNFYPREAKVQWKVDNALQSGNSQESVTEQDSKDSTYSLSSTLTLSKADYEKHKVYACEVTHQGLSSPVTKSFNRGEC | < 1 | < 1e-07 | 2.52e+06 | – | 5.28
isolated antigen-binding protein 3E2 3-4 (antibody, human IgG1, kappa, also called VHV3/VLV4) heavy: not shown light: DIVMTQSPLSLPVTLGDQASISCRSSQTIVHSNGNTYLEWYLQKPGQSPKLLIYKVSNRFSGVPDRFSGSGSGTDFTLKISRVEAEDVGVYYCFQGSHVPWTFGGGTKLEIKRTVAAPSVFIFPPSDEQLKSGTASVVCLLNNFYPREAKVQWKVDNALQSGNSQESVTEQDSKDSTYSLSSTLTLSKADYEKHKVYACEVTHQGLSSPVTKSFNRGEC | 4.72 | 1.23e-05 | 2.6e+06 | – | 6.43
isolated antigen-binding protein 3E2 1-2 (antibody, human IgG1, kappa, V domains shown, also called VHV1/VLV2) VH: QVTLQESGPTLVKPTQTLTLTCTFSGFSLSTFGMGVGWIRQPPGKGLEWLVLILWNDIKYYNPALKSLLTVTKDTSKNQVVLTITNMDPVDTATYYCARVDGYYGYFDVWGQGTMVTVSS VL: DIVMTQSPLSLPVTLGQPASISCRSSQTIVHSNGNTYLEWYLQRPGQSPKLLIYKVSNRFSGVPDRFSGSGSGTDFTLKISRVEAEDVGVYYCFQGSHVPWTFGGGTKVEIKR | < 1 | < 1e-07 | 2.49e+06 | 5.9 | –
isolated antigen-binding protein 3E2 1-3 (antibody, human IgG1, kappa, also called VHV1/VLV3) heavy: not shown light: DIVMTQSPLSLPVTLGQPASISCRSSQTIVHSNGNTYLEWYLQKPGQSPKLLIYKVSNRFSGVPDRFSGSGSGTDFTLKISRVEAEDVGVYYCFQGSHVPWTFGGGTKLEIKRTVAAPSVFIFPPSDEQLKSGTASVVCLLNNFYPREAKVQWKVDNALQSGNSQESVTEQDSKDSTYSLSSTLTLSKADYEKHKVYACEVTHQGLSSPVTKSFNRGEC | < 1 | < 1e-07 | 2.32e+06 | 5.83 | –
